According to patent US20130040825A1, “DNA DAMAGE DETECTION ASSAY AND METHOD” (priority 2011, published 2013):

Experiments:
[1] = test system: CAN1 gene; experiment: q-PADDA quantification of induced DNA damage after in vitro exposure of cloned CAN1 plasmid DNA; format: biochemical, Saccharomyces cerevisiae
Experimental: We quantified induced DNA damage after in vitro and/or in vivo exposure to a dose escalation of H2O2 (1 μM to 500 mM) and methyl methanosulfonate (MMS) (1 mM to 1 M). For in vitro assays, a 1,750 bp fragment of the CAN1 gene was amplified by PCR and cloned into the pJET1.2 vector (Fermentas, Glenn Burie, Md.) using standard protocols. Plasmid DNA was sequence verified, extracted using CsCl and dialyzed overnight against 500 ml H2O. Five μg of dialyzed DNA were treated with H2O2 in the presence of 0.3 M sucrose and 100 μM Fe^2+ as described (84), or with MMS in water (85). Treated DNA was recovered by ethanol precipitation. For in vivo induced DNA damage assays, BER− cells in logarithmic phase were treated with varying doses and times of MMS as described (85). For a control, cells were treated with water in place of MMS. Genomic DNA was extracted as described above, except MMS concentration was kept constant during spheroplasting. […] Control samples were processed as treated samples except water was added in place of the specific genotoxic. Experiments were repeated at least in triplicate. For high-throughput damage quantification, the highly purified streptavidin bound extended products were re-suspended in 50 μl TE and amplified by Real-Time PCR using one of 2 Real-Time PCR detection Systems: IQ5 Real-Time PCR detection System or Qx100 digital droplet PCR system.
For the IQ5 Real-Time PCR detection System using Sybr Green, reactions were carried out in an in a 25 μl final volume with PCR buffer (40 mM Tricine-KOH (pH 8.0), 16 mM KCl, 3.5 mM MgCl2, 3.75 μg/ml bovine serum albumin), 1:75,000 dilution SYBR Green I (Invitrogen), 0.8 mM total dNTPs (Fermentas), 0.7 units JUMPSTART Taq polymerase (Sigma), 0.32 μM each oligo, and 1/32 of total extended product pool. Amplification was monitored and analyzed by measuring the intercalation of the fluorescent dye to double-stranded DNA according to the manufacturer's instructions. To quantify damage on each strand of the yeast CAN1 gene, two fragments of different lengths located in the same genomic region were amplified. The long fragment (513 to 628 bases) was used to assess damage quantification. The short fragment (67 to 68 bases), representing undamaged DNA, was used as an internal normalization control. The PCR conditions for the different fragments were optimized to achieve similar amplification efficiencies required to compare different amplicons. All products were amplified under the following conditions: 95° C., 3 min; 40 cycles (95° C., 15 s; 63° C., 40 s). Each sample was assayed in at least three independent experiments, each with at least four wells per sample, from three separate yeast cultures and DNA extractions. […]

[2] = test system: BER− cells; experiment: q-PADDA quantification of in vivo induced DNA damage in BER− cells in logarithmic phase; format: cell-based, Saccharomyces cerevisiae; conditions: BER− yeast cells (FIG. 4A, 4B)
Experimental: We quantified induced DNA damage after in vitro and/or in vivo exposure to a dose escalation of H2O2 (1 μM to 500 mM) and methyl methanosulfonate (MMS) (1 mM to 1 M). For in vitro assays, a 1,750 bp fragment of the CAN1 gene was amplified by PCR and cloned into the pJET1.2 vector (Fermentas, Glenn Burie, Md.) using standard protocols. Plasmid DNA was sequence verified, extracted using CsCl and dialyzed overnight against 500 ml H2O. Five μg of dialyzed DNA were treated with H2O2 in the presence of 0.3 M sucrose and 100 μM Fe^2+ as described (84), or with MMS in water (85). Treated DNA was recovered by ethanol precipitation. […] For high-throughput damage quantification, the highly purified streptavidin bound extended products were re-suspended in 50 μl TE and amplified by Real-Time PCR using one of 2 Real-Time PCR detection Systems: IQ5 Real-Time PCR detection System or Qx100 digital droplet PCR system.
For the IQ5 Real-Time PCR detection System using Sybr Green, reactions were carried out in an in a 25 μl final volume with PCR buffer (40 mM Tricine-KOH (pH 8.0), 16 mM KCl, 3.5 mM MgCl2, 3.75 μg/ml bovine serum albumin), 1:75,000 dilution SYBR Green I (Invitrogen), 0.8 mM total dNTPs (Fermentas), 0.7 units JUMPSTART Taq polymerase (Sigma), 0.32 μM each oligo, and 1/32 of total extended product pool. […] The long fragment (513 to 628 bases) was used to assess damage quantification. […]

[3] = test system: naked DNA; experiment: PADDA detection of cytosine deamination after exposure of naked DNA to serial dilutions of sodium bisulfite; format: biochemical; conditions: serial dilutions (FIG. 6)
[4] = biological target: T1, Vent exo− (Thermococcus litoralis, UniProt P30317, D141A/DEL1082-1471/DEL495-1032/E143A); experiment: f-PADDA primer extension on synthetic oligonucleotides containing a single engineered lesion; format: biochemical; conditions: for lesion detected in primer extensions (sensitivity of PADDA): engineered lesion in 64 base template, at least 20 independent events per lesion; for Lesion Bypass with Misincorporation (LBM): misincorporation without replicative arrest; for Stops with Misincorporation (SMs): replicative arrest with misincorporation opposite the damaged base; for Stops: replicative arrest without misincorporation; for lesion acting as Vent exo− blocking lesion: share of all primer extensions
T1 construct: Vent exo−, a truncated form of a native DNA polymerase (Vent, NEB); purchased NEB
Experimental: A single non-cycled primer-extension reaction in the region of interest was performed to screen for DNA damage. It will be understood that the presently disclosed and claimed inventive concepts are not limited to these oligonucleotides. For damage detection in synthetic DNA, we prepared a 22.8 μl primer extension reaction containing 1× Thermopol buffer (NEB, Ipswich, Mass.), 0.2 mM each dNTP (Fermentas, Glen Burie, Md.), 20 pmol of a 5-biotin-tagged primer, and 20 pmol of a 64 base template containing either a synthetic abasic or 8-OxoG lesion, along with a control (undamaged oligo). To generate a pool of biotin-tagged extended products (FIG. 1A), the mix was incubated at 94° C. for 3 min, held at 85° C. to add 0.08 U of Vent exo− (NEB), and then incubated at 58° C. for 2 min (annealing), and 75° C. for 2 min (extension). For damage detection in genomic DNA, we used 500 ng of S. cerevisiae genomic DNA, 0.8 U of Vent exo−, and 2 pmol of a 5-biotin-tagged gene specific primer. A sample containing all reagents except Vent exo− was used as a negative control for all experiments. The non-cycled primer-extension contrasts with the multiple-cycle primer-extension reaction of previous assays, and generates a pool of highly specific biotin-tagged extended products (EPs), each of them derived from a single DNA molecule and strand (FIG. 1A). The use of a 5-biotin-tagged sequence specific primer allows for subsequent steps aimed at reducing the background of the technique. Vent exo−, a truncated form of a native DNA polymerase (Vent, NEB), was chosen for this assay instead of the currently used Sequenase (13) or Taq DNA polymerase (14), because of its reported high sensitivity to detect DNA damage (21) and primer-extension efficiency (22-24). To optimize primer-extension performance, Vent exo− units were adjusted to the complexity of the DNA being screened (22).
For the purpose of mapping strand-specific nucleotide damage (f-PADDA), the 3′-end of the highly purified extended products was attached to the 5′-end of a chemically modified adapter-primer using Thermophage single-stranded DNA ligase (Prokaria, Reykjavik, Iceland) [Currently Circligase I from Epicentre, Madison, Wis.]. Thermophage was chosen for this reaction because its efficiency for single-strand ligation is higher than that of T4 RNA ligase (25) used in some PCR-based assays. […] Purified extended-products were first washed with 20 μl of 1× Thermophage ssDNA ligase buffer and then resuspended in 3.7 μl of 1× Thermophage ssDNA ligase buffer. The ligation was performed as recommended by Prokaria except 1.5 μM adapter and 10 U ssDNA ligase in a final 10 μl volume were used under the following conditions: 55° C. for 1 h, 65° C. for 15 min, and 70° C. for 15 min. Then, samples were spun briefly and the supernatant removed as before in the presence of a magnet. The adapter-ligated extended-products were washed with 1 ml of 2× B&W buffer, and then incubated with 1 ml of 0.5 M NaOH for 5 min to completely remove free adapters and non-specifically bound DNA. Finally, the supernatant was discarded and the bound products were washed with 200 μl of 2× B&W buffer. The adapter-linked extended-products pool was then washed with 20 μl of 1× Phusion HF PCR buffer and amplified for 35-cycles using Phusion Hot-Start DNA Polymerase (Finnzymes), an oligonucleotide complementary to the adapter-primer and a nested gene-specific primer according to the manufacturer's instructions. Phusion Hot-Start DNA Polymerase has the highest available accuracy (error rate=4.4×10^−7) and generates blunt-end products. After PCR amplification, the supernatant was collected under a magnetic field for use in cloning (CLONE JET PCR cloning kit, Fermentas) and transformation following standard procedures. This cloning strategy yields 99% of clones positive for a cloned insert. […]

T1 sequence (P30317 other isoform, or with tags, fused parts or gaps D141A/E143A/DEL495-1032/DEL1082-1471): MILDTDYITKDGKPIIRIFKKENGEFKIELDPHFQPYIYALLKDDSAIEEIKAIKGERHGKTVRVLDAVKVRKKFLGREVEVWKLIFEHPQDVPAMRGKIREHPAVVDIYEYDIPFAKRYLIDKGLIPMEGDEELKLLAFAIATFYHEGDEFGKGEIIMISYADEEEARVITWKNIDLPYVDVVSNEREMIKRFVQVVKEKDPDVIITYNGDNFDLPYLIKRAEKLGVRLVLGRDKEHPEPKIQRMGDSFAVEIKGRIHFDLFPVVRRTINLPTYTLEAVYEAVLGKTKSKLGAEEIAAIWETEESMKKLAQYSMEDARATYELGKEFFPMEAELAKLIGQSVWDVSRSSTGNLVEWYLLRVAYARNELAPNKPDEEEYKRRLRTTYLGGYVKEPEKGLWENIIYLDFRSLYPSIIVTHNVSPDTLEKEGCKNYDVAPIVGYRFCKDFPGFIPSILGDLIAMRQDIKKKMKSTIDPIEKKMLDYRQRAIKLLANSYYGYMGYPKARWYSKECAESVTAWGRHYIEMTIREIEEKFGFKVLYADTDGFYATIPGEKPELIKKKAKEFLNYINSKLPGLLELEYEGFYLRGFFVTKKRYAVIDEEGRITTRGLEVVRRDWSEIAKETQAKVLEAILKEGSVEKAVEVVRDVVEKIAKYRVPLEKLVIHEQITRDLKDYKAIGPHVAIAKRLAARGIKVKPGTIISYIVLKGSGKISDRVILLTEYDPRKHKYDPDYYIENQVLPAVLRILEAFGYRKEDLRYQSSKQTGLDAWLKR

OO [H2O2, Hydrogen peroxide]
total CAN1 DNA damage compared to the control ([1]; each dose escalation from 1 μM to 500 mM): significant increase in total CAN1 DNA damage | lowest dose giving a significant increase in damage, NTS ([1]; non-transcribed strand of CAN1, p<0.005): 1 µM | lowest dose giving a significant increase in damage, TS ([1]; transcribed strand of CAN1, p<0.005): 10 µM

COS(C)(=O)=O [MMS, methyl methanosulfonate]
in vitro DNA damage induced by dose escalation ([1]; dose escalation (FIG. 5)): increase in in vitro DNA damage | in vivo DNA damage induced by dose escalation or by increase in exposure time [2]: increase in in vivo DNA damage

O=S([O-])O.[Na+] [sodium bisulfite]
DNA change induced in naked DNA [3]: deamination of unmethylated cytosines to uracil

B1: thymine glycol lesion: synthetic template oligonucleotide containing a single 5R,6S-dihydroxy-5,6-dihydrothymine (thymine glycol) (nucleic acid)
DNA: CCACTCACCGGCACATAACAGACTTGGCTGTCCCAGACTGCAGGAAGCCCAGGTGGAAGCCAT
modifications: thymine glycol lesion, further chemistry not given here
lesion detected in primer extensions (sensitivity of PADDA) [4]: 67%

B2: Abasic sites: 64 base synthetic template oligonucleotide with a single abasic site (dSpacer tetrahydrofuran analog) (nucleic acid)
DNA: CCACTCTCCATGCACATAACAGACTTGGCTCACCTGCACTCAGGAAGCCCAGGTGGAAGCCAT
modifications: abasic tetrahydrofuran site, further chemistry not given here
lesion detected in primer extensions (sensitivity of PADDA) [4]: 100% | Lesion Bypass with Misincorporation (LBM) [4]: 5% | Stops with Misincorporation (SMs) [4]: 50% | Stops [4]: 45% | lesion acting as Vent exo− blocking lesion [4]: 95%

B3: 8-OxoG lesion: synthetic template oligonucleotide containing a single 7,8-dihydro-8-oxo-2′-deoxyguanosine (8-oxo-dG) (nucleic acid)
DNA: CCACTCACCNTGCACATAACAGACTTGGCTGTCCCAGACTGCAGGAAGCCCAGGTGGAAGCCAT
modifications: 8-oxo-dG lesion, chemistry not fully specified
Bypass by Vent exo− without misincorporation [4]: 15% | lesion detected in primer extensions (sensitivity of PADDA) [4]: 85% | Lesion Bypass with Misincorporation (LBM) [4]: 62% | Stops with Misincorporation (SMs) [4]: 15% | Stops [4]: 8% | lesion acting as Vent exo− blocking lesion [4]: 23%

B4: 8-oxo-dA lesion: synthetic template oligonucleotide containing a single 7,8-dihydro-8-oxo-2′-deoxyadenosine (8-oxo-dA) (nucleic acid)
DNA: CCACTCTCCATGCACATAACAGACTTGGCTGTGCNCGGTGCTCAGGAAGCCCAGGTGGAAGCCAT
modifications: 8-oxo-dA lesion, chemistry not fully specified
lesion detected in primer extensions (sensitivity of PADDA) [4]: 100% | Stops with Misincorporation (SMs) [4]: 10% | Stops [4]: 90% | lesion acting as Vent exo− blocking lesion [4]: 100%
